Test [1] concerns the target T1, IL-3Rα, CD123 (interleukin 3 receptor subunit alpha) as expressed on CD123-positive human cancer cell lines … (human, UniProt P26951 20-378).
T1 construct: Target of the flow cytometry on the human cell line MOLM-13 (CD123-positive); NCBI Gene ID 3563; also called IL3RA; IL3R-alpha
T1 sequence: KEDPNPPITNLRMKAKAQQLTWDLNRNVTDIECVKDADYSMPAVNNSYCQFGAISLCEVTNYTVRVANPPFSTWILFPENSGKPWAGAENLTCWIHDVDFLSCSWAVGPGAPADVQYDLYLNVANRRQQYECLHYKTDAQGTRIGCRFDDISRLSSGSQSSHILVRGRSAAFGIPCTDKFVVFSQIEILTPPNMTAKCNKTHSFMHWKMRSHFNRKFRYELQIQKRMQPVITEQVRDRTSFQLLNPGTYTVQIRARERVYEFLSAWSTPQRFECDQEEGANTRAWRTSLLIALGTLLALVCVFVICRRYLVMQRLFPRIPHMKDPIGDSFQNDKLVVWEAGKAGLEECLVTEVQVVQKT
Description: flow cytometry on MOLM-13 cells, anti-kappa-FITC secondary antibody. How it is done: (§1) Binding of the anti-CD123 antibodies was examined by flow cytometry using human haematological cell line MOLM-13. To this end, the cells (5×10⁵ cells/well) were incubated in FACS buffer (PBS without Ca/Mg, 3% FCS, Biochrom) with 10 μg/ml primary antibody solution (start concentration) on ice for 30-45 min protected from light. A dose activity curve (1:5 dilution) was plotted. After the incubation, 200 μl of ice-cold FACS buffer were added using a pipette, and the cell suspension was centrifuged at 4° C. 400 g for 4 min. The cell pellet was washed with 300 μl of ice-cold FACS buffer and the pellet obtained was then resuspended in 100 μl FACS buffer and incubated again with secondary antibody (monoclonal anti-kappa light chains-FITC antibody, Sigma, No. SAB4700605) in a 1:10 dilution on ice for 30 min. The cells were then washed with ice-cold FACS buffer and adjusted to a cell concentration of 0.5×10⁶ cell/m1 prior to flow cytometry using a Guava flow cytometer (Millipore). Propidium iodide (final concentration 1 μg/ml) was used for live staining. The results were shown as EC₅₀ values determined based on the dose response curve and efficacy compared to maximal binding.

In test [2] the target is T2, TPP-5521, recombinant IL3Ra aa20-305 (extracellular domain of IL3Ra, R&D Systems) (murine (printed under Origin in Table …, UniProt P26951 20-305)).
T2 construct: Bought antigen; also called soluble IL3Ralpha; IL3Ra protein
T2 sequence: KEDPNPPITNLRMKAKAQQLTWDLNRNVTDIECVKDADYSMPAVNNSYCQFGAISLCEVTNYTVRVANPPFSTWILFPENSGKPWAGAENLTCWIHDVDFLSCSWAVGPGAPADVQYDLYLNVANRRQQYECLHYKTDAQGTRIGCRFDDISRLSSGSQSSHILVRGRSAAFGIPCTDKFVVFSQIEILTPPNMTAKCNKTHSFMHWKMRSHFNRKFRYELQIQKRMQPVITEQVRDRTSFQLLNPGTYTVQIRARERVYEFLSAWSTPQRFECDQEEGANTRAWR
Put plainly: SPR (Biacore T200), antibody captured by anti-human Fc, IL3Ra ECD as analyte, 1:1 Langmuir fit, 25 °C. How it is done: Surface plasmon resonance experiments for quantitative binding analysis were carried out using a Biacore T200 instrument (GE Healthcare Biacore, Inc.). Here the antibodies to be examined were fixed with the aid of an anti-human Fc antibody (“Human Antibody Capture Kit”, BR-1008-39, GE Healthcare Biacore, Inc.) amine-coupled to the sensor chip surface Amine coupling was performed according to the manufacturer's instructions using 1-ethyl-3-(3-dimethylaminopropyl)carbodiimide hydrochloride (EDC), N-hydroxysuccinimide (NHS) and ethanolamine HCl pH 8.5 (“Amine Coupling Kit” BR-1000-50, GE Healthcare Biacore, Inc.). For the analyses, Series S sensor chips CMS (GE Healthcare Biacore, Inc.) were used with the mobile buffer HBS-EP+ (10 mM HEPES pH 7.4, 150 mM NaCl, 3 mM EDTA, 0.05% Surfactant P20). All experimental steps were carried out at 25° C. After fixation of the anti-CD123 antibodies to be examined, injections of the extracellular domain of IL3Ra (analyte, R&D Systems) at concentrations of 100 nM were carried out, and after each antigen injection the sensor surface was regenerated with glycine HCl pH 2.0. Prior to another analyte injection, antibodies were in each case fixed as above, under identical conditions. For all measurements, an upstream flow cell only containing immobilized amine-coupled anti-human Fc antibody was used as reference cell. Evaluation of the sensorgrams obtained was, after double referencing (subtraction of the reference flow cell signal and a buffer injection), carried out by a global fit based on a 1:1 Langmuir binding model with the aid of the Biacore T200 evaluation software (GE Healthcare Biacore, Inc.).
On the technique in general: SPR reads the build-up and loss of mass on a sensor chip optically.

Test [3] concerns the target T1, IL-3Rα, CD123 (interleukin 3 receptor …). Description: flow cytometry on MOLM-13 cells. As for the experimental part:
as §1
Background: In flow cytometry, cells or beads pass a laser one at a time.

Residue numbers refer to the chain shown, from its start.

B1: TPP-6013 (antibody, human IgG1, kappa, V domains shown)
VH: QVQLQESGPGLVKPSQSLSLTCSVTDYSITSGYYWNWIRQFPGNKLEWMGYISYDGSNNYNPSLKNRISITRDTSKNQFFLKLSSVTTEDTATYYCSRGEGFYFDSWGQGTTLTVSS
VL: DIMMSQSPSSLAVSVGEKFTMTCKSSQSLFFGSTQKNYLAWYQQKPGQSPKLLIYWASTRESGVPDRFTGSGSGTDFTLAISSVMPEDLAVYYCQQYYNYPWTFGGGTKLEIKR
notes: Chimeric antibody: murine 12F1 variable domains with human IgG1 kappa constant regions; also called antiCD123-12F1-hIgG1Kappa; chimeric variant of 12F1
What is called EC50 is the concentration that produces a half-maximal response. A high value points to a need for much substance. As usually defined, the Kd is a measure of binding affinity in units of concentration. B1: in test [1], the EC50 turned out to be 2 nM and the “Efficacy [%] (compared to maximal binding)” value (“Efficacy [%]” for short) is 100%. Moreover, the Kd in test [2] is 0.8 nM.

B2: TPP-8617 (antibody, human IgG1, kappa, V domains shown)
VH: EVQLVQSGAEVKKPGESLKISCKGSDYSITSGYYWNWVRQMPGKGLEWMGYISYDGSNNYNPSLKNGQVTISADKSISTAYLQWSSLKASDTAMYYCSRGEGFYFDSWGQGTLVTVSS
VL: B1 VL
notes: Humanized 12F1 graft on IGKV4-1 / IGHV5-51; also called Hum-TPP6013-17
With B2, in test [1], the response was half-maximal at 1.4 nM (EC50) and the “Efficacy [%]” value came out at 100%.

B3: TPP-5969 (antibody, human IgG1, kappa, V domains shown)
VH: QVQLVQSGAEVKKPGSSVKVSCKASGGTFSDYYMKWVRQAPGQGLEWMGDIIPSNGATFYAQKFQGRVTITADESTSTAYMELSSLRSEDTAVYYCARSHLLRASWFAYWGQGTLVTVSS
VL: DIVMTQSPDSLAVSLGERATINCESSQSLLNSGNQKNYLTWYQQKPGQPPKLLIYWASTRESGVPDRFSGSGSGTDFTLTISSLQAEDVAVYYCQNDYSYPYTFGQGTKLEIKR
notes: Humanized version of murine 7G3, human IgG1 kappa; also called HU7G3-4-hIgG1Kappa
B3: in test [1], a half-maximal response (EC50) required 5.3 nM and the “Efficacy [%]” value turned out to be 34%.

B4: TPP-9476 (antibody, human IgG1, kappa, V domains shown)
VH: B3 VH with A61N, Q65K
VL: B3 VL with L29V
notes: Humanized and germlined variant of 7G3, human IgG1 kappa
As for B4, in test [1], it took 2.8 nM to reach a half-maximal effect (EC50) and the “Efficacy [%]” value is 100%. In test [2], the Kd is 7.2 nM.

B5: TPP-8695 (antibody, human IgG1, kappa, V domains shown)
VH: B3 VH with A61N, Q65K, R67Q
VL: B3 VL
notes: also called Variant4-hIgG1kappa
Consider B5, for which, in test [1], the half-maximal effective concentration (EC50) is 1.12 nM and the “Efficacy [%]” value was determined as 36%.

B6: TPP-8987 (antibody, human IgG1, kappa, V domains shown)
VH: B3 VH with A61N, Q65K, R67Q
VL: B3 VL with L29V
notes: as for B4
For B6, in test [1], the concentration for a half-maximal effect (EC50) came out at 3.2 nM and the “Efficacy [%]” value is 100%. The dissociation constant Kd in test [2] stood at 1.24 nM.

B7: TPP-8988 (antibody, human IgG1, kappa, V domains shown)
VH: EVQLLESGGGLVQPGGSLRLSCAVSDYSITSGYYWNWIRQAPGKKLEWMGYISYDGSNNYNPSLKNGRITISRDTSKNTFYLQMNSLRAEDTAVYYCARGEGFYFDSWGQGTLVTVSS
VL: EIVLTQSPGTLSLSPGERATLSCKSSQSLFFGSTQKNYLAWYQQKPGQAPRLLIYWASTRESGIPDRFSGSGSGTDFTLTISRLEPEDFAVYYCQQYYNYPWTFGQGTKLEIKR
notes: Humanized variant of 12F1 (IGKV3-20 / IGHV3-66 frameworks), human IgG1 kappa
Take B7: in test [1], the midpoint of the response, the EC50, lay at 1.9 nM and the “Efficacy [%]” value turned out to be 100%. Also, the dissociation constant Kd in test [2] is 0.33 nM.

B8: TPP-9129 (antibody, human IgG1, kappa, V domains shown)
VH: B7 VH
VL: EIVLTQSPGTLSLSPGERATLSCRASQSVSSSYLAWYQQKPGQAPRLLIYWASTRESGIPDRFSGSGSGTDFTLTISRLEPEDFAVYYCQQYYNYPWTFGQGTKLEIKR
As to B8, in test [3], the binding result is recorded as “no binding (tested: 10 µg/ml (start concentration))”.

B9: TPP-9078 (antibody, human IgG1, kappa, V domains shown)
VH: B7 VH with M49V
VL: B7 VL
For B9, in test [3], the binding result was “no binding (tested: 10 µg/ml (start concentration))”.

B10: TPP-9075 (antibody, human IgG1, kappa, V domains shown)
VH: B7 VH with W35S
VL: B7 VL
As for B10, in test [1], a half-maximal effect (EC50) was put at 5.37 nM and the “Efficacy [%]” value came to 100%.

B11: TPP-9104 (antibody, human IgG1, kappa, V domains shown)
VH: B7 VH with G32N
VL: B7 VL
For the molecule B11, in test [1], a half-maximal effect (EC50) was put at 25.3 nM and the “Efficacy [%]” value turned out to be 83%.

B12: TPP-9130 (antibody, human IgG1, kappa, V domains shown)
VH: B7 VH
VL: B7 VL with W56G, T59S, E61A, S62T
As for B12, in test [1], the response was half-maximal at 3.01 nM (EC50) and the “Efficacy [%]” value was 100%.

The values above are taken from US20190330357A1 (Bayer, published 2019).
